Results: PMC4517790 (PLoS ONE, 2015)

Legend:
[1] = biological target: T1, AlrTt (Caldanaerobacter subterraneus, UniProt Q8RAK6); assay: X-ray crystal structure, […] Å; assay type: binding; details: co-crystallized with L-Ala and PLP, pH 7.0; active site
T1 construct: gene alr1; full length, pET-28a, N- and C-terminal 6xHis tags, E. coli BL21(DE3); 388 residues; homodimer in crystal, monomer in size exclusion

[2] = biological target: T1, AlrTt; assay: PLP content by absorption at […] nm; assay type: binding; details: active site, internal aldimine with Lys40 (covalent); in the crystal only the phosphate group of PLP was seen
[3] = biological target: Alanine racemase AlrTt (MBAlr1) from Thermoanaerobacter tengcongensis MB4, wild type (Thermoanaerobacter tengcongensis MB4) (UniProt Q8RAK6); assay: crystal structure; AlrTt (10 mg/mL) incubated with L-Ala and PLP at 1:1.5:1.5 molar ratio, hanging drop, 22% PEG 4000, 0.1 M Bis-Tris pH 7.0, 289 K; 2.7 Å; homodimer in one asymmetric unit
[4] = substrate: C[C@@H](N)C(=O)O; assay: purified protein; details: D-Ala to L-Ala; conditions of the kinetic assay not given
[5] = substrate: C[C@H](N)C(=O)O; assay: purified protein; details: L-Ala to D-Ala; conditions of the kinetic assay not given

T1 sequence (Q8RAK6 whole entry): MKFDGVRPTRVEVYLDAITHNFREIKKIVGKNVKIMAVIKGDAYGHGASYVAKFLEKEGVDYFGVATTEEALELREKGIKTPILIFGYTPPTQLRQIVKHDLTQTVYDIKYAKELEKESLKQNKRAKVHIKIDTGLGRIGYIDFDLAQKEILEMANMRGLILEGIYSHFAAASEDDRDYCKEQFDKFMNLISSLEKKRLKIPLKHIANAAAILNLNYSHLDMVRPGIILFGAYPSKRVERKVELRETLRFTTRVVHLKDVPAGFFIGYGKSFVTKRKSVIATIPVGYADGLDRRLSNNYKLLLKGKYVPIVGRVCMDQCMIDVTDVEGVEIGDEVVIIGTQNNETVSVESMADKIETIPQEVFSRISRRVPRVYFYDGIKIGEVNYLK

Molecule | Km [4] [mM] | kcat [4] [s⁻¹] | kcat/Km [4] [M⁻¹ s⁻¹] | Km [5] [mM] | kcat [5] [s⁻¹] | kcat/Km [5] [M⁻¹ s⁻¹] | also measured
C[C@H](N)C(=O)O [L-Ala] | – | – | – | – | – | – | X-ray crystal structure, 2.7 Å [1]: One L-Ala molecule is positioned in the active site pocket by hydrogen bonds
Cc1ncc(COP(=O)(O)O)c(C=O)c1O [PLP] | – | – | – | – | – | – | PLP content [2]: 1.44 ± 0.01 mol PLP per mol enzyme
Alanine racemase AlrTt (MBAlr1) from Thermoanaerobacter tengcongensis MB4, wild type (from UniProt Q8RAK6 1-388) (enzyme) | – | – | – | – | – | – | stoichiometry N [3]: 2
AlrTt (Caldanaerobacter subterraneus subsp. tengcongensis MB4; Q360Y) (protein) MKFDGVRPTRVEVYLDAITHNFREIKKIVGKNVKIMAVIKGDAYGHGASYVAKFLEKEGVDYFGVATTEEALELREKGIKTPILIFGYTPPTQLRQIVKHDLTQTVYDIKYAKELEKESLKQNKRAKVHIKIDTGLGRIGYIDFDLAQKEILEMANMRGLILEGIYSHFAAASEDDRDYCKEQFDKFMNLISSLEKKRLKIPLKHIANAAAILNLNYSHLDMVRPGIILFGAYPSKRVERKVELRETLRFTTRVVHLKDVPAGFFIGYGKSFVTKRKSVIATIPVGYADGLDRRLSNNYKLLLKGKYVPIVGRVCMDQCMIDVTDVEGVEIGDEVVIIGTQNNETVSVESMADKIETIPYEVFSRISRRVPRVYFYDGIKIGEVNYLK | 52.03 ± 5.41 | 251 | 4830 | 87.81 ± 8.72 | 431 | 4910 | –
AlrTt (Caldanaerobacter subterraneus subsp. tengcongensis MB4; Q360Y/S173D) (protein) MKFDGVRPTRVEVYLDAITHNFREIKKIVGKNVKIMAVIKGDAYGHGASYVAKFLEKEGVDYFGVATTEEALELREKGIKTPILIFGYTPPTQLRQIVKHDLTQTVYDIKYAKELEKESLKQNKRAKVHIKIDTGLGRIGYIDFDLAQKEILEMANMRGLILEGIYSHFAAADEDDRDYCKEQFDKFMNLISSLEKKRLKIPLKHIANAAAILNLNYSHLDMVRPGIILFGAYPSKRVERKVELRETLRFTTRVVHLKDVPAGFFIGYGKSFVTKRKSVIATIPVGYADGLDRRLSNNYKLLLKGKYVPIVGRVCMDQCMIDVTDVEGVEIGDEVVIIGTQNNETVSVESMADKIETIPYEVFSRISRRVPRVYFYDGIKIGEVNYLK | 58.48 ± 7.29 | 133 | 2270 | 83.10 ± 8.78 | 246 | 2970 | –
